Reference: patent publication US9096835B2, “DNA polymerase” (Medical Research Council, priority 2003, dated 2015)

What was measured:
Format in all cases: biochemical
four mismatch primers = assay: PCR screen of clones with four mismatch primers; settings: 292 base pair product, 50 cycles of PCR
Procedure: The resultant clones from both CSR and CST were screened and ranked by PCR assay. Briefly, 2 μl of induced cells were added to 20 μl of PCR mix with the relevant 4 mismatch primers. Clones that produced a band were then subjected to further analysis and their activity on single, double and quadruple mismatch primers (single mismatch primers: 5′-CAGGAAACAGCTATGACAAAAATCTAGATAACGAGGGA-3′ (SEQ ID NO: 48) and 5′-GTAAAACGACGGCCAGTACCACCGAACTGCGGGTGACGCCAAGCC 3′ (SEQ ID NO: 49); double mismatch primers: CAGGAAACAGCTATGACTCGACAAAAATCTAGATAACGACC (SEQ ID NO: 50) and GTAAAACGACGGCCAGTTTATTAACCACCGAACTGC (SEQ ID NO: 51); four mismatch primers above.) was investigated. Polymerases that could extend all of these mismatches were found, though many polymerases could do only one of the mismatches and […].
The best first and second round clones were shuffled as described above and subjected to another round of CSR. The same two sets of mismatch primers with four mismatches at their 3′ end were used in the emulsion as two separate sources of selective pressure. This was then dealt with as above and the resultant clones were screened and ranked by PCR assay (as above). Once again, polymerases that could extend all of these mismatches were found. In particular, clones 3B5.

[1] = test system: template containing an abasic site; assay: Translesion replication assay (primer extension), abasic site; settings: gel-extension assay, 60° C.
Procedure: Template primers 22 (undamaged) or 23 (containing a synthetic abasic site) were synthesized by Lofstrand Laboratories (Gaithersburg, Md.). Template primer 24 (containing a single cis-syn thymine dimer), was synthesized as described (34). Primer 25 was ^32P-labeled and annealed to one of the three templates 22, 23, 24 (at a primer template ratio of molar 1:1.5) and extended in 40 mM Tris.HCl at pH 8.0, 5 mM MgCl2, 100 μM of each dNTP, 10 mM DTT, 250 μg/ml BSA, 2.5% glycerol, 10 nM primer-template DNA and 0.1 Unit of polymerase at 60° C. for various times.
Primer extension assays were essentially as described in (Ghadessy et al., 2004). Briefly, undamaged oligonucleotides and a 51mer containing a synthetic abasic site were synthesized by Lofstrand Laboratories (Gaithersburg, Md.) using standard techniques and were gel purified prior to use. A 20mer primer (LES—20 P) with the sequence 5′-[…]-3′ (SEQ ID NO: 99) was 5′-labeled with [^32P]ATP (5000 Ci/mmole; 1 Ci=37 GBq) (Pharmacia) using T4 polynucleotide kinase (Invitrogen, Carlsbad Calif.). Radiolabeled primer-template DNAs were prepared by annealing the 5′[^32P] labeled 20mer primer to one of the two following 51mer templates (at a primer template ratio of molar 1:1.5). 1) undamaged DNA (UNDT51T); 5′-AGCTACCATGCCTGCACGAATTCGGCATCCGTCGCGACCACGGTCGCAGCG-3′ (SEQ ID NO: 100); 2) an oligo (LABA51T) containing a synthetic abasic site (indicated as an X in bold font); 5′-AGCTACCATGCCTGCACGACA XCG GCATCCGTCGCGACCACGGTCGCAGCG-3′ (SEQ ID NO: 101). Standard replication reactions of 10 contained 40 mM Tris.HCl at pH 8.0, 5 mM MgCl2, 100 μM of each ultrapure dNTP (Amersham Pharmacia Biotech, NJ), 10 mM DTT, 250 μg/ml BSA, 2.5% glycerol, 10 nM 5′[32P] primer-template DNA and 0.1 Unit of polymerase. After incubation at 60° C. for various times reactions were terminated by the addition of 10 μl of 95% formamide/10 mM EDTA and the samples heated to 100° C. for 5 min. Reaction mixtures (5 μl) were subjected to 20% polyacrylamide/7 M Urea gel electrophoresis and replication products visualized by PhosphorImager analysis.

[2] = test system: primers with an abasic site seven bases from their 3′ end; assay: Abasic site bypass in PCR; settings: 176 bp product, 20 cycles of PCR
Procedure: FIG. 10. A list of polymerases selected to extend four mismatches were assayed for their ability to extend abasic sites in PCR. Primers with an abasic site seven bases from their 3′ end were designed. Such primers will prevent exponential amplification of the target sequence, restricting it to […] amplification, unless the abasic site is bypassed. […] (A) Screen which identified clone A10. (B) A further 4 polymerases that display good abasic site bypass. Lane M: markers, Hae III digest of Φ X174.
A list of polymerases selected to extend four mismatches were assayed for their ability to extend abasic sites in PCR (FIG. 10).

Molecule	extension of primers containing four mismatches in PCR (four mismatch primers)	extension of primers containing four mismatches in PCR (four mismatch primers; listed as C12)	abasic site bypass in primer extension [1]	amplification product in PCR with abasic site primers [2]	extension of primers containing four mismatches in PCR (four mismatch primers; listed as B8)
3C12: third round clone, four mismatch extension; SEQ ID NO: 96 (protein, Mutant Taq polymerase) MAMLPLFEPKGRVLLVDGHHLAYRTFFALKGPTTSRGEPVQVVYGFAKSLLKALKEDGYKAVFVVFDAKAPSFRHKAYEAYRAGRAPTPEDFPRQLALIKELVDLLGFTRLEVPGYEADDVLATLAKKAEKEGYEVRILTADRGLYQLVSDRVAVLHPEGHLITPEWLWEKYGLRPEQWVDFRALVGDPSDNLPGVKGIGEKTALKLLKEWGSLENLLKNLDRVKPENVREKIKAHLEDLRLSLELSRVRTDLPLEVDLAQGREPDREGLRAFLERLEFGSLLHEFGLLESPKALEEAPWPPPEGAFVGFVLSRKEPMWADLLALAAARGGRVHRAPEPYKALRDLKEARGLLAKDLSVLALREGLGLPPGDDPMLLAYLLDPSNTAPEGVARRYGGEWTEEAGERAALSERLFANLWGRLEGEERLLWLYREVDRPLSAVLAHMEATGVRLDVACLQALSLELAEEIRRLEEEVFRLAGHPFNLNSRDQLERVLFDELGLPAIGKTEKTGKRSTSAAILEALREAHPIVEKILQYRELTKLKSTYIDPLPDLIHPRTGRLHTRFNQTATATGRLSSSGPNLQNIPVRTPLGQRIRRAFVAEEGWLLVVLDYSQIELRVLAHLSGDENLTRVFLEGRDIHTETASWMFGVPREAVDPLMRRAAKTINFGVLYGMSAHRLSQELAIPYEEAQAFIERYFQSFPKVRAWIEKTLEEGRKRGYVETLFGRRRYVPDLNARVKSVREAAERMAFNMPVQGTAADLMKLAMVKLFPRLREMGARMLLQVHDELLLEAPQARAEEVAALAKEAMEKAYPLAVPLEVKVGIGEDWLSAKE	able to extend primers containing four mismatches	can also extend four mismatched primers in PCR	improved abasic site activity	produced an amplification product	
3B6: third round clone, abasic site bypass; SEQ ID NO: 90 (protein, Mutant Taq polymerase) MAMLPLFEPKGRVLLVDGHHLAYRAFFALKGLTTSRGEPVQAVYGFAKSLLKALKEDGYKAVFVVFDAKAPSFRHEAYEAYKAGRAPTPEDFPRQLALIKELVDLLGFTRLEVQGYEADDVLATLAKKAEKEGYEVRILTADRDLYQLVSDRVAVLHPEGHLITPEWLWEKYGLRPEQWVDFRALVGDPSNNLPGVKGIGEKTALKLLKEWGSLENLLKNLDRVKPENVREKIKAHLEDLRLSLELSRVRTDLPLEVDLAQGRELDRERLRAFLERLEFGGLLHEFGLLESPKALEEAPWPPPEGAFVGFVLSRKEPMWADLLALAAARGGRVHRAPEPYKALRDLKEARGLLAKDLSVLALREGLGLPPGDDPMLLAYLLDPSNTAPEGVARRYGGEWTEEAGERAALSERLFANLWGRLEGEERLLWLYREVDRPLSAVLAHMEATGVRLDVAYLRALSLEVAEEIARLEAEVFRLAGHPFNLNSRDQLERVLFDELGLPAIGKTEKTGKRSTSAAVLEALREAHPIVEKILQYRELTKLKSTYIDPLPNLIHPRTGRLHTRFNQTATATGRLSSSDPNLQNIPVRTPLGQRIRRAFIAEEGWLLVVLDYSQIELRVLAHLSGDENLIRVFQEGRDIHTETASWMFGVPREAVDPLMRRAAKTINFGVLYGMSAHRLSQELAIPYEEAQAFIERYFQSFPKVRAWIEKTLEEGRKRGYVETLFGRRRYVPDLNARVKGVREAAERMAFNMPVQGTAADLMKLAMVKLFPRLREMGARMLLQVHDELLLEAPQARAGEVAALAKEAMEKAYPLAVPLEVKVGIGEDWLSAKE	cannot			produced an amplification product	
3B8: third round clone; SEQ ID NO: 92 (protein, Mutant Taq polymerase) MAMLPLFEPKGRVLLVDGHHLAYRTFFALKGLTTSRGEPVQVVYGFAKSLLKALKEDGYKAVFVVFDAKAPSLRHEAYEAYKAGRAPTPEDFLRQLALIKELVDLLGFTRLEVQGYEADDVLATLAKKAEKEGYEVRILTADRDLYQLVSDRVAVLHPEGHLITPEWLWEKYGLRPEQWVDFRALVGDPSDNLPGVKGIGEKTALKLLKEWGSLENLLKNLDRLKPAIREKILAHMDDLKLSWDLAKVRTDLPLEVDFAKRREPDRERLRAFLERLELGSLLHEFGLLESPKTLEEASWPPPEGAFVGFVLSRKEPMWADLLALAAARGGRVHRAPEPYKALRDLKEARGLLAKDLSVLALREGLGLPPGDDPMLLAYLLDPSNTTPEGVARRYGGEWTKEAGERAALSERLFANLWGRLEGEERLLWLYREVDRPLSAVLAHMEATGVRLDVAYLRALSLEVAEEIARLEAEVFRLAGHPFNLNSRDQLERVLFDELGLPAIGKTEKTGKRSTSAAVLEALREAHPIVEKILQYRELTKLKSTYIDPLPDLIHPRTGRLHTRFNQTATATGRLSSSDPNLQNIPVRTPLGQRIRRAFVAEEGWLLVVLDYSQIELRVLAHLSGDENLTRVFLEGRDIHTETASWMFGVPREAVDPLMRRAAKTINFGVLYGMSAHRLSQELAIPYEEAQAFIERYFQSFPKVRAWIEKTLEEGRKRGYVETLFGRRRYVPDLNARVKSVREAAERMAFNMPVQGTAADLMKLAMVKLFPRLREMGARMLLQVHDELLLEAPQARAEEVAALAKEAMEKAYPLAVPLEVKEGIGEDWLSAKE	able to extend primers containing four mismatches			produced an amplification product	cannot
3B5: third round clone, four mismatch extension; SEQ ID NO: 88 (protein, Mutant Taq polymerase) MAMLPLFEPKGRVLLVDGHHLAYRTSFALKGPTTSRGEPVQVVYGFAKSLLKALKEDGYKAVFVVFDAKAPPFRHKAYEAYRAGRAPTPEDFPRQLALVKELVDLLGFTRLEVPGYEADDVLATLAKKAEKEGYEVRILTADRGLYQLVSDRVAVLHPEGHLITPEWLWEKYGLRPEQWVDFRALVGDPSDNLPGVKGIGEKTALKLLKEWGSLENLLKNLDRVKPENVREKIKAHLEDLRLSLELSRVRTDLPLEVDLAQGREPDRERLRAFLERLEFGSLLHEFGLLESPKALEEAPWPPPEGAFVGFVLSRKAPMWADLLALAAARGGRVYRAPEPYKALRDLKEARGLLAKDLSVLALREGLGLPPGDDPMLLAYLLDPSNTTPEGVARRYGGEWTEEAGERAALSERLFANLWGRLEGEERLLWLYREVDRPLSAVLAHMEATGVRLDVACLQALSLELAEEIRRLEEEVFRLAGHTFNLNSRDQLERVLFDELGLPAIGKTEKTGKRSTSAAILEALREAHPIVEKILQYRELTKLKSTYIDPLPDLIHPRTGRLHTRFNQTATATGRLSSSDPNLQNIPVRTPLGQRIRRAFIAEEGWLLVVLDYSQIELRVLAHLSGDENLIRVFQEGRDIHTETASWMFGVPREAVDPLMRRAAKTINFGVLYGMSAHRLSQELAIPYEEAQAFIERYFQSFPKVRAWIEKALEEGRRRGYVETLFGRRRYVPDLNARVKSVREAAERMAFNMPVQGTAADLMKLAMVKLFPRLREMGARMLLQVHDELLLEAPQARAEEVAALAKEAMEKAYPLAVPLEVKVGIGEDWLSAKE	able to extend primers containing four mismatches				
